Data from the supplement of paper PMC9170038.

Legend:
MS2 coat protein [1] = assay: apparent KD of MS2 coat protein, switch ON state; designed switch direction (-1 OFF switch, 1 ON switch): -1; higher = weaker reporter binding; conditions: FMN input: 0 or 200 uM; Eterna round: R93 (includes R88 designs)
How it was run: (§1)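 Designed RNA switches were made by on-chip transcription from Illumina sequencing clusters and then titrated with SNAP-549-labelled MS2 coat protein. Twofold steps ran from 0.7 or 1.5 nM to 3 µM, each lasting 0.8–1.5 h early and 10–20 min late, in 100 mM Tris-HCl pH 7.5, 80 mM KCl, 4 mM MgCl2, without or with constant ligand. Apparent KD is the per-design median of normalised cluster binding-curve fits.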

MS2 coat protein [2] = assay: apparent KD of MS2 coat protein, switch OFF state (with FMN for OFF switches, without FMN for ON switches); designed switch direction (-1 OFF switch, 1 ON switch): -1; higher = weaker reporter binding; conditions: FMN input: 0 or 200 uM; Eterna round: R93 (includes R88 designs)
How it was run: as §1

Row | Sequence | apparent KD of MS2 coat protein (MS2 coat protein [1]) [nM] | apparent KD of MS2 coat protein (MS2 coat protein [2]) [nM]
1 | AAAAAGGCAGGAUAUACGAGUCAAAGAAAAGACAAAAAGGGACAUGAGGAUCACCCAUGUAGAAGGGCCAAAAA [Fiskers exclusion D2 62% 4] | 51.6 | 193
2 | CUCUAGUGAGGAUAUGGAAGAAAAGAAAAGAAAGAAAAGAACCAGAAGGCACAUGAGGAUCACCCAUGUAAGAA [EteRNA is fun!] | 47.7 | 66
3 | UCCGCACAUGAGGAUCACCCAUGUCAGGAUAUACAAGAAAAUCAGGCUAAUGCCUGAAGUAGAAGGGACGAGGA [Armaingean] | 27.7 | 16
4 | AAGUUGACAGGAUAUACUUGGGCAACAAAUAAACUAAUAUAACAUGAGGAUCACCCAUGUAGAAGGGUCAGAAA [JR_Exc002_Sub207] | 46.3 | 56.4
5 | AAAAAGUGAGGAUAUGCGAAGGCGUCUGAUAGACGAGGCUAGCAGAAGGCACAUGAGGAUCACCCAUGUGGGAG [Mat - Exclusion 4 - Eli mod - D93] | 71.5 | 148
6 | AAAAAACAUGAGGAUCACCCAUGUCAGGAUAUCGAAAGAAAAAAAAAGAAAGAAAAAACGAGAAGGGACAAAAA [Amethyst 29] | 20.1 | 33.1
7 | AAGAACGUAGGAUAUACAAAAUAAAAGAAAAGAAAGAAAGAACAUGAGGAUCACCCAUGUAGAAGGGCGAAGAA [Sekhemresewadjtawy Sobekhotep III] | 49.5 | 39.6
8 | AAAAAGUCAGGAUAUUCGGAAGGGAAAGCGCAAACCCAACCGAAGAAGGGACAUGAGGAUCACCCAUGUGGAAA [Ecls4-III 65% - Late G segment 1] | 79 | 88.9
9 | AAGAAGUCAGGAUAUCCAAAAGAAAAGAAAAGAAAAGAAAAGGAGAAGGGACAUGAGGAUCACCCAUGUAAGAA [Khnemibre Ahmose II] | 71.3 | 20.9
10 | AAAGUACAUGAGGAUCACCCAUGUCAGGAUAUCGUGGCGGGAAAAACCGGGAAACGCACGAGAAGGGACAAAAA [EX1 Malc#18 Mod 13 - Jieux - Exclusion 1] | 36.2 | 42
11 | CUUGUGUGAGGAUAUGUAAGAUGAAUAAGCAGUUCUAAAAGGCAGAAGGCACAUGAGGAUCACCCAUGUAAAAU [Sodirexe] | 61.3 | 16.1
12 | CUUAAGUCAGGAUAUGUCAAAAGUCACAAAAGUGACAAAAGACAGAAGGGACAUGAGGAUCACCCAUGUAAAAA [Starry Exclusion 4.5 (starryjess round 1 mod)] | 78.3 | 139
13 | AAGAUGUCAGGAUAUACAUAAAUAAAAAAUUAUGUUAAAACACAUGAGGAUCACCCAUGUAGAAGGGACAUCAA [AJ 7] | 17.2 | 15.5
14 | AACAGACAUGAGGAUCACCCAUGUAAGGAUAUCCAAAACGAUAAAACAAGAAUGACAGGGAGAAGGUACAGCAA [JR_Exc001_Sub007] | 53.6 | 49
15 | CUCUUGUAAGGAUAUGACUACAUAAAAAAAAAAAAAUGUAGUCAGAAGGUACAUGAGGAUCACCCAUGUACAAA [Brourd - Exclusion 4 - Sub 1] | 24.5 | 36
16 | AAGAAGUCAGGAUAUGUCUGUGCGAAAAAAAAAAAGUGCAGACAGAAGGGACAUGAGGAUCACCCAUGUGGAAA [Florian 65% 7] | 46.8 | 55.3
17 | AGUUGGCGAGGAUAUACAUGAGGAUCACCCAUGUGAGAGUAAAAAGUGAGAAAGAAAAGUAGAAGGCGCUCACA [JL Lego Mod 14] | 77.5 | 46.3

Row | Sequence | apparent KD of MS2 coat protein (MS2 coat protein [1]) [nM] | apparent KD of MS2 coat protein (MS2 coat protein [2]) [nM]
18 | AAAAAGGCAGGAUAUACAUGAGGAUCACCCAUGUGAAAAAAAAAAAAAAAAAAAAAGUGUAGAAGGGUCAAAAA [Exclusion 3 - Omei 2] | 51.7 | 51.4
19 | AAAAAGUGAGGAUAUACGCUGAAGAGUAGACACAACCAGGCGUAGAAGGCACAUGAGGAUCACCCAUGUACAAA [Ex4 Malc#9] | 28.6 | 26.1
20 | GGUUGGCGAGGAUAUACAUGAGGAUCACCCAUGUGAGAGAAAAAAGUGAGGAGGAGAAGUAGAAGGCGCUGACG [salish99-ex3-17] | 18.9 | 3.7
21 | GUGUACAGAGGAUAUACAUGAGCAUGGAAACAUGCAAGAUCACAUGAGGAUCACCCAUGUAGAAGGCUGUACAC [Ex2: 733] | 50.3 | 30.8
22 | AACUGACAUGAGGAUCACCCAUGUCAGGAUAUGACUUCGAAAAAUAAAAUAAACGAUGUCAGAAGGGACAUGGA [Design 67: Sub-opt NB] | 21.5 | 41.1
23 | AGCUAGUCAGGAUAUACGAACAUGUAAAAAGACGUGAAGGGACAUGAGGAUCACCCAUGUAGAAGGGACUAGCA [74%, Web mod - With 1 less C's] | 33.9 | 108
24 | AACAGUACAGGAUAUACAUGAGGAUCACCCAUGUGAGAAACCAAUGGCGUACCAUAAAGUAGAAGGGUACUGGA [Moding Maslow Revisited (73) 31] | 62.3 | 158
25 | UCCUGACAUGAGGAUCACCCAUGUCAGGAUAUAGUAUGAAAAAAAAAAAAAAAAAAUACUAGAAGGGACAUGGG [Design 12: Super Stable Short Helix 3] | 29.2 | 21.6
26 | AGCUAGUGAGGAUAUACAAGAAUAUAAACAAAAAUGAAGGGACAUGAGGAUCACCCAUGUAGAAGGCACUAGCA [Diamond 72] | 55.2 | 221
27 | AAAAUACGAGGAUAUACAUGAGGAUCACCCAUGUCAAAAAAUGACUACACAAAAGAAAGUAGAAGGCGUAAAAA [Ex 3 May 16] | 25.3 | 30.4
28 | ACUUGACAUGAGGAUCACCCAUGUCAGGAUAUAGUAGGACAAAUAAAUAAAAGUUCUACUAGAAGGGAUAUGGA [Design 18: G-U+ 3] | 16.7 | 15.7
29 | AAAAAUGGAGGAUAUACAUGAGGAUCACCCAUGUGUAACUAAACAAAACACAAAAAAAGUAGAAGGCCAAAAAA [Gilly Gone Silly 6 - Jieux - Exclusion 3] | 14.5 | 17.1
30 | AGAAUACAUGAGGAUCACCCAUGUGAGGAUAUCAAAAGAAAAAGAAAAGAAAAGAAAAUGAGAAGGCACAAAAG [EX 1 May 14] | 48.3 | 51.7
31 | AUAAAGACAGGAUAUACAUGAGGAUCACCCAUGUAAAAAAAAAAAUGAUCCUCAAAAAGUAGAAGGGUCAAUAA [JR_Exc003_Sub015] | 78.7 | 155
32 | AAAAAACAUGAGGAUCACCCAUGUCAGGAUAUCGAAAAAUAAAUAAAAAUAAAAUAAACGAGAAGGGACAAAAA [May 11] | 39.8 | 44.7
33 | AACACACAUGAGGAUCACCCAUGUAAGGAUAUGCAAGCAAGAAGAAAGAACAGAAAAAGCAGAAGGUACACACA [Amethyst 74] | 28.4 | 24.3
34 | AACAAGUCAGGAUAUGCGAACAGAAAAUAAGCUACACAAAAGCAGAAGGGACAUGAGGAUCACCCAUGUAAAUA [JR_Exc004_Sub501] | 49.9 | 29.8
